Consider one substance from article PMC3841061.

This test has as its target P2Y1R-i3-YFP-long2/tail-HT (human) (UniProt P47900). Briefly: FRET or BRET.
UniProt P47900, sequence (P47900 whole entry): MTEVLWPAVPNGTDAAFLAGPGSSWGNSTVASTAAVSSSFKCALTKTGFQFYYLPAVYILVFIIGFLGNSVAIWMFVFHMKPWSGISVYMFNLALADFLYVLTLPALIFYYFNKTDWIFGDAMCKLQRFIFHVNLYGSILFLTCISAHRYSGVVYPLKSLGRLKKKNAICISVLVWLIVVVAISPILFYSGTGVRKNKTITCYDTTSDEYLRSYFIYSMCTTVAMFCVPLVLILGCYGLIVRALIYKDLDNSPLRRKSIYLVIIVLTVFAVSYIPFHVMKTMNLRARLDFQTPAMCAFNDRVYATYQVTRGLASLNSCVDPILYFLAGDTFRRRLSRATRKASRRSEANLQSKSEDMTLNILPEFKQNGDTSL

For “Gαq-CFP (from UniProt P21279 1-359) (natural protein)”, the ΔnF/ICFP by ADPβS 10 μmol/L (agonist-induced increase in FRET) turned out to be 0.014.
